The source of these data is patent publication US7101843B2, “Glucagon-like peptide-1 analogs” (Eli Lilly and Company, priority 2001, dated 2006).

Several values for one entry are separate records, joined by “and”; a condition that tells them apart may be missing. Equal entries are not always repeated.

Data set [1] can be described thus: GLP aggregation assay (turbidity at 350 nm, time to onset of aggregation). The format is physicochemical. The note with it: for aggregation time: at 30° C., stirred solution, pH 7.4. How it is done:
GLP peptides of this invention were analyzed with respect to their potential to aggregate in solution. In general, peptides in solution were stirred at elevated temperature in a suitable buffer while recording turbidity at 350 nm as a function of time. Time to the onset of aggregation was measured to quantify the potential of a given GLP molecule to aggregate under these stressed conditions.
A GLP-1 compound was first dissolved under alkaline conditions (pH 10.5) for 30 minutes to dissolve any pre-aggregated material. The solution was then adjusted to pH 7.4 and filtered. Specifically, 4 mg of a lyophilized GLP-1 compound was dissolved in 3 ml of 10 mM phosphate/10 mM citrate. The pH was adjusted to 10.0–10.5 and held for 30 minutes. The solution was adjusted with HCl to pH 7.4 and filtered through a suitable filter, for example a Millex GV syringe filter (Millipore Corporation, Bedford, Mass.). […] Every five minutes the turbidity of the solution was measured at 350 nm on an AVIV Model 14DS UV-VIS spectrophotometer (Lakewood, N.J.). For 30 seconds prior to and during the measurement the solution was stirred using a magnetic stir bar from Starna Cells, Inc. (Atascadero, Calif.). An increase in OD at 350 nm indicates aggregation of the GLP-peptide. The time to aggregation was approximated by the intersection of linear fits to the pre-growth and growth phase according to method of Drake (Arvinte T, Cudd A, and Drake A F. (1993) J. Bio. Chem. 268, 6415–6422).

The next data set addresses GLP-1 receptor (Homo sapiens, UniProt P43220). The experiment in a line: GLP-1 receptor activation in vitro. The class given is cell-based. The note with it: Val^8-GLP-1(7-37)OH = 1.0, several values in a cell are repeat determinations. An excerpt: “Insulinotropic activity” refers to the ability to stimulate insulin secretion in response to elevated glucose levels, thereby causing glucose uptake by cells and decreased plasma glucose levels. […] The entire teachings of these references are incorporated herein by reference.
The entire teachings of these references are incorporated herein by reference.

Data set [2] relates to plasma insulin and plasma glucose. The experiment in a line: Intravenous glucose tolerance test (IVGTT) in rats. Conditions: plasma insulin after injection (figures). The class given is in vivo, wistar male rats. How it is done: FIG. 1 graphs plasma insulin and plasma glucose concentrations obtained at various time points after injection of increasing concentrations of Val^8-GLP-1(7–37)OH in rats.
FIG. 2 graphs plasma insulin concentrations obtained at various time points after injection of increasing concentrations of Val^8-Glu^22-Val^25-Ile^33-GLP-1 (7–37)OH in rats.
A double cannulation procedure was performed on fasting wistar male rats to facilitate injection of solutions and withdrawal of blood. Rats were injected through the jugular cannula with a bolus of 10% glucose solution followed by a solution containing a specific amount of a GLP-1 compound. Rats were injected with 0.01, 0.03, 0.1, 0.3, 1, and 10 μg/kg of GLP-1 compound. Blood was collected through the carotid cannula 2, 4, 6, 10, and 30 minutes following the injection of GLP-1 compound and analyzed. Plasma insulin and plasma glucose levels were measured in each sample. Average insulin and glucose levels are illustrated in FIGS. 1, 2, and 3.

Sequence of GLP-1 receptor (P43220 24-463, species assumed): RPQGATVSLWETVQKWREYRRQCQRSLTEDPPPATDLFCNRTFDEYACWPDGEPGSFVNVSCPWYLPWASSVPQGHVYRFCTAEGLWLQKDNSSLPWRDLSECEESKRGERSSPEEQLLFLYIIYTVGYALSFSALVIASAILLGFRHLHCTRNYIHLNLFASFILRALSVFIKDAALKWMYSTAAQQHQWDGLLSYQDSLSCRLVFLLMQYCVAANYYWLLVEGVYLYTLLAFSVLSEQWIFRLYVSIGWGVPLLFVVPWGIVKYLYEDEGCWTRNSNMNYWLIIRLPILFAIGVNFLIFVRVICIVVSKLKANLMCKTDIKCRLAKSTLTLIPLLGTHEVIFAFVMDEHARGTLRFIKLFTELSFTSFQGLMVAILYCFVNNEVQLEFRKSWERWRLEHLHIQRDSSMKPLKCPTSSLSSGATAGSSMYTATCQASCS

With Val^8-Glu^22-GLP-1(7–37)OH, in data set [1], the aggregation time entry is given as “approximately 72 hours” and the “propensity to aggregate in solution compared to Val^8-GLP-1(7–37)OH” value (from here on “propensity … compared to Val^8-GLP-1(7–37)OH”) is on record as “markedly decreased propensity to aggregate”.
With “Val^8-Glu^22-Ile^33-GLP-1(7-37)OH (HVEGTFTSDVSSYLEEQAAKEFIAWLIKGRG) [GLP-1 analog]”, the “GLP-1 receptor activation relative to Val^8-GLP-1(7-37)OH” value in the data set with GLP-1 receptor is 4.7 and 3.8 and 3.4.
Take “Val^8-Glu^22-Val^25-GLP-1(7-37)OH (HVEGTFTSDVSSYLEEQAVKEFIAWLVKGRG) [GLP-1 analog]”: the “GLP-1 receptor activation relative to Val^8-GLP-1(7-37)OH” value in the data set with GLP-1 receptor was 4.7 and 2.9.
Consider “Val^8-Glu^22-Val^25-Ile^33-GLP-1(7-37)OH (HVEGTFTSDVSSYLEEQAVKEFIAWLIKGRG) [GLP-1 analog]”, for which the “GLP-1 receptor activation relative to Val^8-GLP-1(7-37)OH” value with GLP-1 receptor was 4.9 and 5.8 and 6.7. In data set [2], the “in vivo potency compared to Val^8-GLP-1(7–37)OH” value is given as “higher in vivo potency”.
Regarding “Val^8-Glu^30-GLP-1(7-37)OH (HVEGTFTSDVSSYLEGQAAKEFIEWLVKGRG) [GLP-1 analog]”, in data set [1], the aggregation time entry is given as “approximately 30 hours” and the “propensity … compared to Val^8-GLP-1(7–37)OH” value is “markedly decreased propensity to aggregate”.
As for “Val^8-His^37-GLP-1(7-37)OH (HVEGTFTSDVSSYLEGQAAKEFIAWLVKGRH) [GLP-1 analog]”, in data set [1], the aggregation time result is listed as “greater than 40 hours” and the “propensity … compared to Val^8-GLP-1(7–37)OH” value was “markedly decreased propensity to aggregate”.
Regarding “Val^8-Tyr^16-Glu^22-GLP-1(7-37)OH (HVEGTFTSDYSSYLEEQAAKEFIAWLVKGRG) [GLP-1 analog]”, in the data set with GLP-1 receptor, the “GLP-1 receptor activation relative to Val^8-GLP-1(7-37)OH” value is 3.6 and 3.8 and 4.9 and 4.6.
The same measure, in the same setting: under “Val^8-Tyr^18-Glu^22-GLP-1(7-37)OH (HVEGTFTSDVSYYLEEQAAKEFIAWLVKGRG) [GLP-1 analog]” stands 5.1 and 5.9.
